No end group written: not given here.

B1: Tat-Src40-49 (peptide)
peptide: YGRKKRRQRRRKPASADGHRG
B2: biotinylated Src 40-58 peptide (peptide)
peptide: KPASADGHRGPSAAFVPAA
modifications: also: biotinylated, position not given here
notes: Probe in dot blots (~15 ug/ml) and ELISA (6 uM); also called biotin-Src 40-58; Biotin-Src 40-58
B3: GST-ND2.1.4 (AA 289-321) (other)
chain: NLYFYLRLIYSTSITLLPMSNNVKMKWQFEHTK
modifications: also: GST fusion, linker and position in fusion not given here
notes: also called ND2 2.1.4; not shown: glutathione S-transferase (GST) fusion partner
B4: biotinylated Src40-49 peptide (peptide)
peptide: KPASADGHRG
modifications: also: biotinylated, position not given here
notes: Labelled probe; also called bio-Src 40-49; Bio-Src40-49
B5: Src40-49-Tat (peptide)
peptide: KPASADGHRGYGRKKRRQRRR
B6: Tat-ND2 310-321 (peptide)
peptide: YGRKKRRQRRRNVKMKWQFEHTK
B7: Src 40-58 peptide (plated, unlabelled) (peptide)
peptide: KPASADGHRGPSAAFVPAA
B8: biotinylated scrambled Src 40-58 control peptide (peptide)
peptide: AGSHAPFPSPARAGVAPDA
modifications: also: biotinylated, position not given here
notes: Scrambled negative control; also called sSrc 40-58; B-sSRC 40-58
B9: biotinylated ND2 310-321 (peptide)
peptide: NVKMKWQFEHTK
modifications: also: biotinylated, position not given here
B10: Src40-49 peptide (peptide)
peptide: KPASADGHRG

In test [1] the target is T1, ND2 310-321 peptide (human).
T1 peptide: NVKMKWQFEHTK
Briefly: competition ELISA, competitor against biotinylated Src40-49 (FIG. 5D). In general terms: In an ELISA, binding on a coated surface is turned into a signal by an enzyme label.

Test [2] has as its target B9. In words: dot blot, Src fragments spotted, probed with Bio-ND2 310-321 (FIG. 5A).
Test [3] addresses B6. Briefly: ELISA (FIG. 6).
Test [4] concerns the target T1, ND2 310-321 peptide. In words: ELISA (FIG. 6); ND2 310-321 is the weaker comparator.
Test [5] addresses T2, GST-ND2.1 (AA239-321) (human, UniProt P03891 239-321).
T2 construct: not shown: glutathione S-transferase (GST) fusion partner
Briefly: ELISA, GST-ND2.1 coated, biotin-Src 40-58 at 6 uM, SA-HRP (FIG. 2C).

For the test “GST-ND2.1.4 (AA 289-321)”, the target named is B3. Briefly: ELISA, GST-ND2.1.4 coated, biotin-Src 40-58 at 6 uM, SA-HRP (FIG. 2C).
The target in test [6] is T3, GST-ND2 (full length ND2) (human, UniProt P03891 1-347).
T3 construct: GST fusion protein, expressed and purified; printed as full length ND2; not shown: glutathione S-transferase (GST) fusion partner
Briefly: dot blot, GST proteins spotted, probed with biotinylated Src 40-58 (FIG. 1C).

In test [7] the target is B2. In words: ELISA (FIG. 2C).
Test [8] deals with B8. In words: dot blot of GST-ND2 constructs (FIG. 2B).
Procedure: (§1) In general, 1-10 ug of peptide or recombinant protein was spotted onto nitrocellulose and dried overnight. Membranes were blocked with 5% milk for 1 h at room temperature, then incubated with biotinylated peptides (˜15 ug/ml) for 2 hours the washed using standard wash buffers. Bound probe was detected using a short incubation with streptavidin conjugated to horseradish peroxidase (SA-HRP) and standard detection reagents, predominantly chemiluminescence kits.
The target of test [9] is B6. In words: ELISA, plate coated with Tat-ND2 310-321 (FIG. 5C).
The target in test [10] is B6. Briefly: competition ELISA, competitor against biotinylated Src40-49, Tat-ND2 310-321 pre-coated (FIG. 5E).
The target in test [11] is B2. In words: ELISA (FIG. 6).
For test [12], the target named is B4. In words: competition ELISA, competitor against coated ND2 310-321 peptide (FIG. 7).
Test [13] addresses B9. Briefly: ELISA, Src peptides plated at ~5 uM (FIG. 5B).
In test [14] the target is T3, GST-ND2 (full length ND2). In words: dot blot of GST-ND2 constructs (FIG. 2B).
Procedure: as §1
For test [15], the target named is T2, GST-ND2.1 (AA239-321). In words: dot blot of GST-ND2 constructs (FIG. 2B).
Procedure: as §1
Test [16] concerns the target B7. In words: ELISA (FIG. 5B).
For the test “Src40-49 peptide”, the target named is B10. In words: dot blot (FIG. 5A).
The target of the test “Src40-49-Tat” is B5. Briefly: dot blot (FIG. 5A).
In the test “Tat-Src40-49” the target is B1. Briefly: dot blot (FIG. 5A).

T3 sequence (P03891 whole entry, the tested form may be a part): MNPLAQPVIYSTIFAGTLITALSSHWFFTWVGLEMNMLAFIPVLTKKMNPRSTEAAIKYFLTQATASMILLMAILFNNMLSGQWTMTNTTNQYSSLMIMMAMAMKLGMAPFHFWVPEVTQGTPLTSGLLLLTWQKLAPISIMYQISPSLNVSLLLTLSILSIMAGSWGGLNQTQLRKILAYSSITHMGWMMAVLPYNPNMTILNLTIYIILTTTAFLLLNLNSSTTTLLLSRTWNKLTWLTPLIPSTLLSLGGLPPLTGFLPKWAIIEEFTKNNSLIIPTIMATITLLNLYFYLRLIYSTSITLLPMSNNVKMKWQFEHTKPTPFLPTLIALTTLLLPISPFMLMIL

As to B1, the binding result with ND2 310-321 peptide [1] and with biotinylated ND2 310-321 [2] was “binds” in each case.
As for B2, the binding result (with Tat-ND2 310-321 [3]; with ND2 310-321 peptide [4]; in the test with GST-ND2.1 (AA239-321) [5]; with GST-ND2.1.4 (AA 289-321); in [6]) was “binds” each time.
Turning to B3, the binding result was “binds” in [7] and “no binding (tested: ~15 ug/ml biotinylated peptide)” in test [8].
On to B4, for which the binding result with Tat-ND2 310-321 [9] was “binds”.
On to B5, for which the binding result with biotinylated ND2 310-321 [2] and with Tat-ND2 310-321 [10] was “binds” in each case.
Consider B6, for which the binding result in [11] and in test [12] was “binds” in each case.
Take GAAKRPSDGH (also: biotinylated, position not given here, also called Bio-sSrc 40-49; sSrc40-49) [biotinylated scrambled Src 40-49 control peptide]: the binding result with Tat-ND2 310-321 [9] is on record as “no binding”.
Take B7: in the test with biotinylated ND2 310-321 [13], the binding result is “binds”.
In the case of B8, the binding result (in [14]; with GST-ND2.1 (AA239-321) [15]) was “no binding (tested: ~15 ug/ml biotinylated peptide)” in each case.
As for B9, the binding result (in [16]; with Src40-49 peptide; with Src40-49-Tat; with Tat-Src40-49) was “binds” each time.
Consider B10, for which, in the test with biotinylated ND2 310-321 [2], the binding result is recorded as “binds”.

These data come from patent US20140274906A1 (NONO, published 2014).
